± gives the uncertainty stated by the source.
B1: RanBP-type and C3HC4-type zinc finger-containing protein 1, residues 369 to 411; numbered along this chain, Q9BYM8 (parent)
chain: YHCKTPDCKGWCFFEDDVNEFTCPVCFHVNCLLCKAIHEQMNC

Variants of: B1
Assay: abundance fitness (aPCA) (normalised: wild type 0, dead -1); higher = more abundant; growth selection in yeast, the domain comes from the species named
Conditions: Homo sapiens

Going from YHCKTPDCKGWCFFEDDVNEFTCPVCFHVNCLLCKAIHEQMNS to YHCKTPDCKGWCFFEDDVNEFLCPVCFHVNCLLCKAIHEQMNC, the abundance fitness rises from -0.312 ± 0.055 to -0.146 ± 0.05.

First: YHCKTPDCKGWCFFETDVNEFTCPVCFHVNCLLCKAIHEQMNC
Second: YHCKTPDCKGWCFFEDDVNEFTEPVCFHVNCLLCKAIHEQMNC
The abundance fitness of the first is higher: -0.088 ± 0.058 for the first, -0.82 ± 0.084 for the second.

First: YHCKTPDCKGWCFFEDDVNEFTKPVCFHVNCLLCKAIHEQMNC
Second: YHCKTPDCKGYCFFEDDVNEFTCPVCFHVNCLLCKAIHEQMNC
The abundance fitness of the first is lower: -0.529 ± 0.14 for the first, -0.038 ± 0.13 for the second.

YHCKTPDCKGWCFFEDDVNEFTCPVCFHVNCLLCKVIHEQMNC and YHCKTPDCKGWCFFEDDVNEFTCPVCFHVNCLLCKAIHEQMNA are within error of each other in abundance fitness: -0.28 ± 0.044 for the first, -0.372 ± 0.076 for the second.

YHCKTPDCKGWCFFEDDVNEFTVPVCFHVNCLLCKAIHEQMNC and YHCKTPDCKGWCFFEDDVNEFTCPVCFHVVCLLCKAIHEQMNC are within error of each other in abundance fitness: -0.911 ± 0.096 for the first, -1.04 ± 0.11 for the second.

First: YHCKQPDCKGWCFFEDDVNEFTCPVCFHVNCLLCKAIHEQMNC
Second: YHCKTPDGKGWCFFEDDVNEFTCPVCFHVNCLLCKAIHEQMNC
The abundance fitness of the first is higher: -0.004 ± 0.052 for the first, -0.691 ± 0.045 for the second.

YHCKTPDCKGWCFFEDDVNEFTCPVCFHVNCLVCKAIHEQMNC and YHCKTPDCKGWCFFEDDVNEFTCPVCFHVNCLLCKAIHEQMVC are within error of each other in abundance fitness: -0.072 ± 0.045 for the first, -0.141 ± 0.062 for the second.

YHCKTPDCKGWCFFHDDVNEFTCPVCFHVNCLLCKAIHEQMNC and YHCKTPDCKGWCFFEDDVNEFICPVCFHVNCLLCKAIHEQMNC are within error of each other in abundance fitness: -0.321 ± 0.14 for the first, -0.243 ± 0.084 for the second.

First: YHCKTPDCKGWCFFEDDVNEFTCPSCFHVNCLLCKAIHEQMNC
Second: YHCKTPDCKGWCFFEDDVNEFTCPVCFHVNCLLAKAIHEQMNC
The abundance fitness of the first is higher: -0.225 ± 0.047 for the first, -0.733 ± 0.05 for the second.

First: YHCKTPDCKGWCFFEDDVMEFTCPVCFHVNCLLCKAIHEQMNC
Second: YHCKTPDCKFWCFFEDDVNEFTCPVCFHVNCLLCKAIHEQMNC
The abundance fitness of the first is higher: -0.078 ± 0.058 for the first, -0.346 ± 0.17 for the second.

Going from YHCKTPDCKGWCFFEDDVNLFTCPVCFHVNCLLCKAIHEQMNC to YHCKTPDCKGWCFFEDDVNEFTCPVCFHVNCLLCGAIHEQMNC, the abundance fitness rises from -0.163 ± 0.054 to 0.067 ± 0.044.

YHCKTPDCKGWLFFEDDVNEFTCPVCFHVNCLLCKAIHEQMNC and FHCKTPDCKGWCFFEDDVNEFTCPVCFHVNCLLCKAIHEQMNC are within error of each other in abundance fitness: -0.348 ± 0.33 for the first, -0.282 ± 0.2 for the second.

Going from YHCKTPDCKGWCFFEDDVNEFTCPVCFHVNCLLCKAIHRQMNC to YHCKTPDCVGWCFFEDDVNEFTCPVCFHVNCLLCKAIHEQMNC, the abundance fitness rises from -0.111 ± 0.045 to 0.026 ± 0.04.

First: YHCKTPDCKGWCFFEDDVNEFTMPVCFHVNCLLCKAIHEQMNC
Second: YHCKTPDCKGWCFFEWDVNEFTCPVCFHVNCLLCKAIHEQMNC
The abundance fitness of the first is lower: -0.895 ± 0.088 for the first, -0.349 ± 0.072 for the second.

YHCKTPDCKGWCFFEDDVNEFTCPVCFHVNCLLCKYIHEQMNC and YHCKTPDCKGWCFFEDDVNEFTCPPCFHVNCLLCKAIHEQMNC are within error of each other in abundance fitness: -0.83 ± 0.22 for the first, -0.76 ± 0.079 for the second.

Compared with YHCKTPDCKGWCFFEDDVNEFTCPVCFHVNCLLCKAWHEQMNC, YHCKTPDCKGWCFFEDDVNEFTCPVCFHVNCLLCKAISEQMNC is lower in abundance fitness: -0.39 ± 0.05 for the first, -0.614 ± 0.052 for the second.

Compared with YHCKTPDCKGWCFFEDDVNEFTCPVCFHRNCLLCKAIHEQMNC, YHCKTPDCKGWCGFEDDVNEFTCPVCFHVNCLLCKAIHEQMNC is lower in abundance fitness: -0.105 ± 0.044 for the first, -0.279 ± 0.082 for the second.

YHCKTPDCKGWCFFEDDVNEFTCPVCFHINCLLCKAIHEQMNC and YHCKTPDCKGWCFFEDDVNEFTCPVCFHVNCLLKKAIHEQMNC are within error of each other in abundance fitness: -0.453 ± 0.25 for the first, -0.623 ± 0.11 for the second.

First: YHCKTPDCKGWCFFEDDTNEFTCPVCFHVNCLLCKAIHEQMNC
Second: YHCLTPDCKGWCFFEDDVNEFTCPVCFHVNCLLCKAIHEQMNC
The abundance fitness of the first is lower: -0.01 ± 0.073 for the first, 0.124 ± 0.044 for the second.

Compared with YHCKTPDCKGWCFFEDDVNEFTCPVDFHVNCLLCKAIHEQMNC, YHCKTPDCKGWCFFEDDVNEFTRPVCFHVNCLLCKAIHEQMNC is lower in abundance fitness: -0.567 ± 0.078 for the first, -0.771 ± 0.057 for the second.

Compared with YHCKTPDCKGWCFFEDDVNEFTCPMCFHVNCLLCKAIHEQMNC, YHCKTPDCKGWCFFEDDVNESTCPVCFHVNCLLCKAIHEQMNC is higher in abundance fitness: -0.298 ± 0.072 for the first, 0.07 ± 0.043 for the second.

First: YHCKTPDSKGWCFFEDDVNEFTCPVCFHVNCLLCKAIHEQMNC
Second: YHCKTPDCKGWCFFEDDVNEFTCPICFHVNCLLCKAIHEQMNC
The abundance fitness of the first is lower: -0.682 ± 0.076 for the first, -0.057 ± 0.089 for the second.

YHCKTPDCKGWCFFEDDVNEFTCPVCFHVNCLDCKAIHEQMNC and YHCKTPDCKGWCFFEDDVNEFTCPYCFHVNCLLCKAIHEQMNC are within error of each other in abundance fitness: -0.148 ± 0.09 for the first, -0.221 ± 0.2 for the second.

Compared with YHCKTPDCKGWCFFEDDVNEFTCPVCFHVNGLLCKAIHEQMNC, YHCKTPDCKGWCRFEDDVNEFTCPVCFHVNCLLCKAIHEQMNC is higher in abundance fitness: -0.655 ± 0.041 for the first, 0.092 ± 0.081 for the second.

YHCKTPDCKGWCFFEDDVNEFTCPVCFHVNNLLCKAIHEQMNC and YHCKTPDCKGWCFFEDDVNEFTCPVCFHVNCCLCKAIHEQMNC are within error of each other in abundance fitness: -0.532 ± 0.17 for the first, -0.27 ± 0.12 for the second.

YMCKTPDCKGWCFFEDDVNEFTCPVCFHVNCLLCKAIHEQMNC and YHCKTPDCKGWCFFEDDVVEFTCPVCFHVNCLLCKAIHEQMNC are within error of each other in abundance fitness: -0.031 ± 0.059 for the first, 0.028 ± 0.052 for the second.

First: YHCKTPDCKGWCFFEDDVNEFTCPVCFHVNCLLCKAQHEQMNC
Second: YHCKTPDCKGWCFFEDDVNEFTCPVCFHVNCLLCKAIHEQTNC
The abundance fitness of the first is lower: -0.077 ± 0.18 for the first, 0.155 ± 0.048 for the second.

First: YHCKTPDCKGWCFFEDDVNEFTCPVIFHVNCLLCKAIHEQMNC
Second: YHCKTPDCKGWCFFQDDVNEFTCPVCFHVNCLLCKAIHEQMNC
The abundance fitness of the first is lower: -0.783 ± 0.13 for the first, -0.096 ± 0.068 for the second.

Compared with YHCKTPDCKGWCFFEDWVNEFTCPVCFHVNCLLCKAIHEQMNC, YHCKTPGCKGWCFFEDDVNEFTCPVCFHVNCLLCKAIHEQMNC is higher in abundance fitness: -0.133 ± 0.065 for the first, 0.057 ± 0.04 for the second.

YHCKTPDCKGWCFFEDDVNEFTCPVCFHVNCLLCKAIHEQMMC gave an abundance fitness of -0.101 ± 0.06.

— the Human Domainome abundance scans (Beltran et al. 2025)
